First the molecules themselves.
B1: Hammerhead Ribozyme (parent)
chain: ACCGGAUGUGCUUUCCGGUCUGAUGAGUCCGUGAGGACGAAACAG

In the series the parent is B1. The series can be described thus: self-cleavage, relative activity (ratio to wild type); higher = more cleavage; co-transcriptional.
Take ACCGGACGUGCUUUCCGGUCUGAUGAGUACGUGAGGACGAAACAG [U7C C29A]: the self-cleavage was 0.685.
Then ACCGGACGUGCUUUCCGGUCUGAUGAGUGCGUGAGGACGAAACAG [U7C C29G], with 0.514; and ACCGGAAGUGCUUUCCGGUCUGAUGACUCCGUGAGGACGAAACAG [U7A G27C], with 0.449; and ACCGGAAGUGCUUUCCGGUCUGAUGAUUCCGUGAGGACGAAACAG [U7A G27U], with 0.32.
Then ACCGGAAGUGCUUUCCGGUCUGAUGAAUCCGUGAGGACGAAACAG [U7A G27A], with 0.66; and ACCGGAAGUGCUUUCCGGUCUGAUGAGUCCGUCAGGACGAAACAG [U7A G33C], with 1.44.
Then ACCGGAAGUGCUUUCCGGUCUGAUGAGUCCGUUAGGACGAAACAG [U7A G33U], with 1.14.
Consider ACCGGAAGUGCUUUCCGGUCUGAUGAGUCCGUAAGGACGAAACAG [U7A G33A], for which the self-cleavage worked out at 1.45.
Then ACCGGAAGUGCAUUCCGGUCUGAUGAGUCCGUGAGGACGAAACAG [U7A U12A], with 1.55; and ACCGGAAGUGCGUUCCGGUCUGAUGAGUCCGUGAGGACGAAACAG [U7A U12G], with 1.33.
The value for ACCGGAAGUGCCUUCCGGUCUGAUGAGUCCGUGAGGACGAAACAG [U7A U12C] was 0.79; that for ACCGGACGUGCUUUUCGGUCUGAUGAGUCCGUGAGGACGAAACAG [U7C C15U] was 0.995; that for ACCGGACGUGCUUUACGGUCUGAUGAGUCCGUGAGGACGAAACAG [U7C C15A] was 0.737.
Then ACCGGACGUGCUUUGCGGUCUGAUGAGUCCGUGAGGACGAAACAG [U7C C15G], with 0.667; and ACCGGACGUGCUUUCCGGUCUGAUGAGUCCGUGAGGACGAAACGG [U7C A44G], with 1.13.
Turning to ACCGGACGUGCUUUCCGGUCUGAUGAGUCCGUGAGGACGAAACUG [U7C A44U], the self-cleavage was 0.582.
The value for ACCGGACGUGCUUUCCGGUCUGAUGAGUCCGUGAGGACGAAACCG [U7C A44C] was 0.631; that for ACCGGAAGUGCUUUCCGGUCUGAUGAGUCCGUGAGGACGAAAUAG [U7A C43U] was 0.302.
Then ACCGGAAGUGCUUUCCGGUCUGAUGAGUCCGUGAGGACGAAAGAG [U7A C43G], with 0.237; and ACCGGAAGUGCUUUCCGGUCUGAUGAGUCCGUGAGGACGAAAAAG [U7A C43A], with 0.317.
For the variant ACCGGAAGUGCUUUCCGGUCUGAUGAGUCGGUGAGGACGAAACAG [U7A C30G], the self-cleavage is 1.05.
The value for ACCGGAAGUGCUUUCCGGUCUGAUGAGUCUGUGAGGACGAAACAG [U7A C30U] was 1.05.
The value for ACCGGAAGUGCUUUCCGGUCUGAUGAGUCAGUGAGGACGAAACAG [U7A C30A] was 1.09; that for ACCGGACGUGCUUUCCGGUCUGAUGAGUCCGUGAGGACGAAACAG [U7C] was 1.05; that for ACCGGACGUGCUUUCCGGUCUGAUGAGUCCGUGAGGACGACACAG [U7C A41C] was 0.34.
The value for ACCGGACGUGCUUUCCGGUCUGAUGAGUCCGUGAGGACGAGACAG [U7C A41G] was 0.322; that for ACCGGACGUGCUUUCCGGUCUGAUGAGUCCGUGAGGACGAUACAG [U7C A41U] was 0.336; that for ACCGGAAGUGCUUUCCAGUCUGAUGAGUCCGUGAGGACGAAACAG [U7A G17A] was 0.498.
For the variant ACCGGAAGUGCUUUCCCGUCUGAUGAGUCCGUGAGGACGAAACAG [U7A G17C], the self-cleavage is 0.481.
The value for ACCGGAAGUGCUUUCCUGUCUGAUGAGUCCGUGAGGACGAAACAG [U7A G17U] was 0.524.
The value for ACCGGAAGUGCUUUCCGGUCUGAUGAGUCCGGGAGGACGAAACAG [U7A U32G] was 1.07; that for ACCGGAAGUGCUUUCCGGUCUGAUGAGUCCGCGAGGACGAAACAG [U7A U32C] was 0.797.
For the variant ACCGGAAGUGCUUUCCGGUCUGAUGAGUCCGAGAGGACGAAACAG [U7A U32A], the self-cleavage came to 1.38.
The value for ACCGGAAGUGCUUUCCGGUCUGAUGAGUCCGUGAGGAAGAAACAG [U7A C38A] was 0.49; that for ACCGGAAGUGCUUUCCGGUCUGAUGAGUCCGUGAGGAUGAAACAG [U7A C38U] was 1.27.
The value for ACCGGAAGUGCUUUCCGGUCUGAUGAGUCCGUGAGGAGGAAACAG [U7A C38G] was 0.431; that for ACCGGACGUGCUUUCCGGUCUGUUGAGUCCGUGAGGACGAAACAG [U7C A23U] was 0.339.
The value for ACCGGACGUGCUUUCCGGUCUGCUGAGUCCGUGAGGACGAAACAG [U7C A23C] was 0.356.
Regarding ACCGGACGUGCUUUCCGGUCUGGUGAGUCCGUGAGGACGAAACAG [U7C A23G], the self-cleavage was 0.454.
The value for ACCGGACGUGCUUUCCGGUCUGAUGAGUCCGUGAGGACGGAACAG [U7C A40G] was 0.382.
The value for ACCGGACGUGCUUUCCGGUCUGAUGAGUCCGUGAGGACGUAACAG [U7C A40U] was 0.373.
The value for ACCGGACGUGCUUUCCGGUCUGAUGAGUCCGUGAGGACGCAACAG [U7C A40C] was 0.418; that for ACCGGAAGUGCUUUCCGGUCUGAUGAGUCCGUGAGGACGAAACAC [U7A G45C] was 0.566; that for ACCGGAAGUGCUUUCCGGUCUGAUGAGUCCGUGAGGACGAAACAA [U7A G45A] was 0.427.
For the variant ACCGGAAGUGCUUUCCGGUCUGAUGAGUCCGUGAGGACGAAACAU [U7A G45U], the self-cleavage turned out to be 0.484.
Turning to ACCGGAAGUGCUUUCCGGUCUGAUAAGUCCGUGAGGACGAAACAG [U7A G25A], the self-cleavage was determined as 0.32.
On to ACCGGAAGUGCUUUCCGGUCUGAUCAGUCCGUGAGGACGAAACAG [U7A G25C], for which the self-cleavage came out at 0.279.
Then ACCGGAAGUGCUUUCCGGUCUGAUUAGUCCGUGAGGACGAAACAG [U7A G25U], with 0.281; and ACCGGAAGUGCUUCCCGGUCUGAUGAGUCCGUGAGGACGAAACAG [U7A U14C], with 1.17; and ACCGGAAGUGCUUACCGGUCUGAUGAGUCCGUGAGGACGAAACAG [U7A U14A], with 1.15.
ACCGGAAGUGCUUGCCGGUCUGAUGAGUCCGUGAGGACGAAACAG [U7A U14G]: the self-cleavage amounted to 1.14.
Then ACCGGAAGUGCUUUCCGGUCUGAUGAGUCCAUGAGGACGAAACAG [U7A G31A], with 1.28.
Then ACCGGAAGUGCUUUCCGGUCUGAUGAGUCCUUGAGGACGAAACAG [U7A G31U], with 1.26.
Turning to ACCGGAAGUGCUUUCCGGUCUGAUGAGUCCCUGAGGACGAAACAG [U7A G31C], the self-cleavage was 1.28.
Then ACCGGAAGUGCUUUCCGGUCUGAUGAGUCCGUGAAGACGAAACAG [U7A G35A], with 0.687; and ACCGGAAGUGCUUUCCGGUCUGAUGAGUCCGUGACGACGAAACAG [U7A G35C], with 0.707; and ACCGGAAGUGCUUUCCGGUCUGAUGAGUCCGUGAUGACGAAACAG [U7A G35U], with 0.751.
